Biological target: the molecule itself
Assay: cryo-EM structure; focused refinement (Relion v4.0) of the prior map EMD-12545 over the WDR26-YPEL5 region, 6.7 Å; fitted with AlphaFold2 models

B1: WDR26 in the CTLH subcomplex of the cryo-EM map EMD-12545 / EMD-19039 (natural protein, human, UniProt Q9H7D7 1-661, looked up)
chain: MQANGAGGGGGGGGGGGGGGGGGGGQGQTPELACLSAQNGESSPSSSSSAGDLAHANGLLPSAPSAASNNSNSLNVNNGVPGGAAAASSATVAAASATTAASSSLATPELGSSLKKKKRLSQSDEDVIRLIGQHLNGLGLNQTVDLLMQESGCRLEHPSATKFRNHVMEGDWDKAENDLNELKPLVHSPHAIVVRGALEISQTLLGIIVRMKFLLLQQKYLEYLEDGKVLEALQVLRCELTPLKYNTERIHVLSGYLMCSHAEDLRAKAEWEGKGTASRSKLLDKLQTYLPPSVMLPPRRLQTLLRQAVELQRDRCLYHNTKLDNNLDSVSLLIDHVCSRRQFPCYTQQILTEHCNEVWFCKFSNDGTKLATGSKDTTVIIWQVDPDTHLLKLLKTLEGHAYGVSYIAWSPDDNYLVACGPDDCSELWLWNVQTGELRTKMSQSHEDSLTSVAWNPDGKRFVTGGQRGQFYQCDLDGNLLDSWEGVRVQCLWCLSDGKTVLASDTHQRIRGYNFEDLTDRNIVQEDHPIMSFTISKNGRLALLNVATQGVHLWDLQDRVLVRKYQGVTQGFYTIHSCFGGHNEDFIASGSEDHKVYIWHKRSELPIAELTGHTRTVNCVSWNPQIPSMMASASDDGTVRIWGPAPFIDHQNIEEECSSMDS
notes: WDR26, human; the fitted AlphaFold2 model is of isoform 1 (Q9H7D7-1); subcomplex held WDR26, RANBP9, TWA1, ARMC8, GID4 and YPEL5; also called WDR26 dimer
  stoichiometry N: 2
